Measured values published in article PMC4132890.

Target: ryanodine receptors (rat (endogenous in rat ventricular myocytes)) (UniProt B0LPN4)
Test: fluorescence wash-in and wash-out in permeabilized myocytes

Sequence of UniProt B0LPN4 (B0LPN4 whole entry): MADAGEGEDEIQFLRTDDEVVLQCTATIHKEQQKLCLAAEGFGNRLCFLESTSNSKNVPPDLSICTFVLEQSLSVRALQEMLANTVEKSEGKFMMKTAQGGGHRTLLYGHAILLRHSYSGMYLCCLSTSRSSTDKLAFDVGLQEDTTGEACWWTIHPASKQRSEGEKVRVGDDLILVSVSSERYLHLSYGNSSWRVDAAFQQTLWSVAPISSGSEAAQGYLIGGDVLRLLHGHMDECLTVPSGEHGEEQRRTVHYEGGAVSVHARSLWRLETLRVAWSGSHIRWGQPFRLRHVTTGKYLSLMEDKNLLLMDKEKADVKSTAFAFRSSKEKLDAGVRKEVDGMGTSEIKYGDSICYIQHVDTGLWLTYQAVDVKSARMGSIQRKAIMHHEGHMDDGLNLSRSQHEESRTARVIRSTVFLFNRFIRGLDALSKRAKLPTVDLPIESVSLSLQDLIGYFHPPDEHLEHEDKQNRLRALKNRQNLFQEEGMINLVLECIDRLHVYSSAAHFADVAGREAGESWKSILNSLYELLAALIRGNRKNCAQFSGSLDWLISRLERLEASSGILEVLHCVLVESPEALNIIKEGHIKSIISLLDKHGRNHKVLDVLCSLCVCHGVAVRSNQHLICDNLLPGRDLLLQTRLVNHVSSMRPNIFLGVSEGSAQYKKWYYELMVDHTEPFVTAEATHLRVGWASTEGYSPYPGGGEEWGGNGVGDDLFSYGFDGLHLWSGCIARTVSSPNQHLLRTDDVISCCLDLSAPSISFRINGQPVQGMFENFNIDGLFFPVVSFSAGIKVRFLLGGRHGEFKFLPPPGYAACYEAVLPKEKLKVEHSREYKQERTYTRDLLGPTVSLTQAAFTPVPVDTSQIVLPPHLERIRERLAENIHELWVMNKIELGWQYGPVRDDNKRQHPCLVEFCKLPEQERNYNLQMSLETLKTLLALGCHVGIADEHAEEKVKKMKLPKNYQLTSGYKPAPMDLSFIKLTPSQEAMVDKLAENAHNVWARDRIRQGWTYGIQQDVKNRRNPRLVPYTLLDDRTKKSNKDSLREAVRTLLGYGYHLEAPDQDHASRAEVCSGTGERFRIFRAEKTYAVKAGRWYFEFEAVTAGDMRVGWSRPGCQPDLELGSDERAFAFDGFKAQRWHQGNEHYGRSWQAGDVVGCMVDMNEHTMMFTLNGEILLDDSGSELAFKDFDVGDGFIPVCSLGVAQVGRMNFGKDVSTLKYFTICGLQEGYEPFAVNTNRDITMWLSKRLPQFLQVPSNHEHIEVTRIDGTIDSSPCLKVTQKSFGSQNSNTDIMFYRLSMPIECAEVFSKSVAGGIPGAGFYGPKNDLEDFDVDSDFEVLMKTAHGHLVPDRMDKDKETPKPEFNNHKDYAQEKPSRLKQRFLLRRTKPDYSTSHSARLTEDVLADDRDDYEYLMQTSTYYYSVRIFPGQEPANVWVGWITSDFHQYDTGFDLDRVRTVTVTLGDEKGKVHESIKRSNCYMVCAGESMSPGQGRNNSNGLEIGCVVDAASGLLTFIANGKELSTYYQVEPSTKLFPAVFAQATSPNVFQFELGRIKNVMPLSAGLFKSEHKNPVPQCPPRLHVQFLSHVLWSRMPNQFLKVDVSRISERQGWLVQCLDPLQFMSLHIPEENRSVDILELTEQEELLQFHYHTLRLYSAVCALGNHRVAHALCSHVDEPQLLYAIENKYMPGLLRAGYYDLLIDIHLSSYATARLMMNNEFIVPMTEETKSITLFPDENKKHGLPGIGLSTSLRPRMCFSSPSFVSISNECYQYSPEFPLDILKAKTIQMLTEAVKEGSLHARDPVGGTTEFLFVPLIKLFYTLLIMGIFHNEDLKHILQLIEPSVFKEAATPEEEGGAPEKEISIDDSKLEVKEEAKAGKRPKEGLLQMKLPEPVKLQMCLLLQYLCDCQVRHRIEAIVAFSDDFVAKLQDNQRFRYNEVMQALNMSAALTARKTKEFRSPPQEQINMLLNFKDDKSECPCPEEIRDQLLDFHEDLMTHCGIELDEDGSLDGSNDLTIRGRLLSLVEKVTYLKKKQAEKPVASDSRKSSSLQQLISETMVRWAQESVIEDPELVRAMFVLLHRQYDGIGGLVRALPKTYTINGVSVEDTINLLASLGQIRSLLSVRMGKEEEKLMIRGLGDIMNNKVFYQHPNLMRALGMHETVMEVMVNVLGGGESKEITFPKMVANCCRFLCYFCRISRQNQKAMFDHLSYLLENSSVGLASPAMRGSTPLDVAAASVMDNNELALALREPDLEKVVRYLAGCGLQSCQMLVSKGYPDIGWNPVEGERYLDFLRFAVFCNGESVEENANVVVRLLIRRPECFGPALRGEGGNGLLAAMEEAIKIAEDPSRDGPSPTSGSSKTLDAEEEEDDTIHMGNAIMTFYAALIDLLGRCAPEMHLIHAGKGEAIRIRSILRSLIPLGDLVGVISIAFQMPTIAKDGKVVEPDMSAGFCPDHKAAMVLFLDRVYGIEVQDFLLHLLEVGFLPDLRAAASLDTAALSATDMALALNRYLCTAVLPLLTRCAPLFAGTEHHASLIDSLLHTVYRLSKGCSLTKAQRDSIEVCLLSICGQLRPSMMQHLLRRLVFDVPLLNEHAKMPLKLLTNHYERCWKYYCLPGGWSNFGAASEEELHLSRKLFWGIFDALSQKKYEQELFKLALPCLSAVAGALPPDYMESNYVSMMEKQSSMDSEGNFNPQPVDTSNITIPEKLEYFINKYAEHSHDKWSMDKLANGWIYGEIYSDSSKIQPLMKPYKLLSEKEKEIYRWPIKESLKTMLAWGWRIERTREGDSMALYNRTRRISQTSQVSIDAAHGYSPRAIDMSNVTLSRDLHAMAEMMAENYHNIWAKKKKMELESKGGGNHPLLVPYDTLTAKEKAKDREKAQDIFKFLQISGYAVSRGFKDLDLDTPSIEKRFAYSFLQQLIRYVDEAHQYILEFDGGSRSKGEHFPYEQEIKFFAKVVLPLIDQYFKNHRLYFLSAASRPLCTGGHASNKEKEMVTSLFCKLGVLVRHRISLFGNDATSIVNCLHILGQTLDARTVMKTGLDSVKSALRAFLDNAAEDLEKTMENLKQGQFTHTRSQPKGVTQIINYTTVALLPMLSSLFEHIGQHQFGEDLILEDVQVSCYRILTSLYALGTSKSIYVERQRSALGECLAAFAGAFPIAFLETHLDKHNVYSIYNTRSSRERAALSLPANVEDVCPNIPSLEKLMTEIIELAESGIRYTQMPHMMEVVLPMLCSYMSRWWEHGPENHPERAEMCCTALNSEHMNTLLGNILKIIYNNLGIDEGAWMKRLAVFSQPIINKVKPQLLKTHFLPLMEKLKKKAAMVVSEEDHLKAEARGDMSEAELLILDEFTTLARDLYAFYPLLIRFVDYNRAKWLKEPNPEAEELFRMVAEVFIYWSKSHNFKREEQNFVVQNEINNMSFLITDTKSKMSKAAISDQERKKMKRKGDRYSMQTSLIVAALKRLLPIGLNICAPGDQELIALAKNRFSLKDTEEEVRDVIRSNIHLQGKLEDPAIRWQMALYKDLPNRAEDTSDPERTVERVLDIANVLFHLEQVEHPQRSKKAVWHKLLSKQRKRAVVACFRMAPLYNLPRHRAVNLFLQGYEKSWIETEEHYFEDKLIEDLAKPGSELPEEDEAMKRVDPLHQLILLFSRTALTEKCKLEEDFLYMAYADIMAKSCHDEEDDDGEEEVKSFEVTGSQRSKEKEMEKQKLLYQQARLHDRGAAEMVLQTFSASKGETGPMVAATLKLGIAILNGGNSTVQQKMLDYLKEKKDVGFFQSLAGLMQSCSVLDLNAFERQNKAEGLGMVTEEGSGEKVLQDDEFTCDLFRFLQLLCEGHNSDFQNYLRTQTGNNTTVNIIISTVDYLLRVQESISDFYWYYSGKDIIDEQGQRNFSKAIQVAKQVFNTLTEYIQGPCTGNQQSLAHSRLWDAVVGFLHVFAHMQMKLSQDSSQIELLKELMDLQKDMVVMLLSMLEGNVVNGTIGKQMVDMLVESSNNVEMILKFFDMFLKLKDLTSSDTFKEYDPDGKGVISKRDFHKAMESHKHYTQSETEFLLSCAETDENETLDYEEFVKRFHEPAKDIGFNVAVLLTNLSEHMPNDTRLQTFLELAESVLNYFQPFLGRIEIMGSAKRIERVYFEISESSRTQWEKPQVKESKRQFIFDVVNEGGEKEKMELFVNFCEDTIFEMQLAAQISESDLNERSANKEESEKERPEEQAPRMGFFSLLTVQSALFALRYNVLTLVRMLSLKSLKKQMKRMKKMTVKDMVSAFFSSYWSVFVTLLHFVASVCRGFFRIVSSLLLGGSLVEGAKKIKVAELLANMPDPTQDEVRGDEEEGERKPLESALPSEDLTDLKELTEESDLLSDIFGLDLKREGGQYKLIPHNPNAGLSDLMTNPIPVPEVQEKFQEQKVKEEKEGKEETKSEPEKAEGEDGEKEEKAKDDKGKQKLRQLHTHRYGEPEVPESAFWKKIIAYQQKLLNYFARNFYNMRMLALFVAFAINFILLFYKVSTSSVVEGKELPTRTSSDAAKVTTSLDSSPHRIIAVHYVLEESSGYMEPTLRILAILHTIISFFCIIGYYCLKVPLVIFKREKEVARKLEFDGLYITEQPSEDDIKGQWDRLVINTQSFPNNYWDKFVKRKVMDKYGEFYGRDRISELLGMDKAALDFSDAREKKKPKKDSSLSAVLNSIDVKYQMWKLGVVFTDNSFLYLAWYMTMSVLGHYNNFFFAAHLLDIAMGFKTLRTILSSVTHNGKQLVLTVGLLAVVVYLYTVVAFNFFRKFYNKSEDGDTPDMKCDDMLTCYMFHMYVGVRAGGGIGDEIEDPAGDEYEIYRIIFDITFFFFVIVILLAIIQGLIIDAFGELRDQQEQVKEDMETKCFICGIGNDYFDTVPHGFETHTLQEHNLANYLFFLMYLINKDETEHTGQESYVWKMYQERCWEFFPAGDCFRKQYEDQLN

Kd [nM] | Substance
43.8 | GCaMP2.2Low-FKBP12.6
15.5 | GCaMP2.2-FKBP12.6
